Experimental data published in IntAct's records for PubMed 22056771.

B1: Autophagy-related protein 8 (Saccharomyces cerevisiae), P38182 (parent)
chain: MKSTFKSEYPFEKRKAESERIADRFKNRIPVICEKAEKSDIPEIDKRKYLVPADLTVGQFVYVIRKRIMLPPEKAIFIFVNDTLPPTAALMSAIYQEHKDKDGFLYVTYSGENTFGR
partner: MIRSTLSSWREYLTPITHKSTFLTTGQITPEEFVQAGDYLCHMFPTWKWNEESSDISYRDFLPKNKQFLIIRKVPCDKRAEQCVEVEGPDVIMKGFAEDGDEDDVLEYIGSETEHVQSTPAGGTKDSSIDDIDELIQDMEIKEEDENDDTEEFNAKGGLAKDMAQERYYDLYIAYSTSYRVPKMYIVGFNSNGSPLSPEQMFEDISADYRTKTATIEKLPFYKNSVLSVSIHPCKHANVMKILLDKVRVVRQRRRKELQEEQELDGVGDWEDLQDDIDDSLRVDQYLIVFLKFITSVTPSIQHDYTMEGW
B2: Ubiquitin-like modifier-activating enzyme ATG7 (Saccharomyces cerevisiae), P38862 (parent)
chain: MSSERVLSYAPAFKSFLDTSFFQELSRLKLDVLKLDSTCQPLTVNLDLHNIPKSADQVPLFLTNRSFEKHNNKRTNEVPLQGSIFNFNVLDEFKNLDKQLFLHQRALECWEDGIKDINKCVSFVIISFADLKKYRFYYWLGVPCFQRPSSTVLHVRPEPSLKGLFSKCQKWFDVNYSKWVCILDADDEIVNYDKCIIRKTKVLAIRDTSTMENVPSALTKNFLSVLQYDVPDLIDFKLLIIRQNEGSFALNATFASIDPQSSSSNPDMKVSGWERNVQGKLAPRVVDLSSLLDPLKIADQSVDLNLKLMKWRILPDLNLDIIKNTKVLLLGAGTLGCYVSRALIAWGVRKITFVDNGTVSYSNPVRQALYNFEDCGKPKAELAAASLKRIFPLMDATGVKLSIPMIGHKLVNEEAQHKDFDRLRALIKEHDIIFLLVDSRESRWLPSLLSNIENKTVINAALGFDSYLVMRHGNRDEQSSKQLGCYFCHDVVAPTDSLTDRTLDQMCTVTRPGVAMMASSLAVELMTSLLQTKYSGSETTVLGDIPHQIRGFLHNFSILKLETPAYEHCPACSPKVIEAFTDLGWEFVKKALEHPLYLEEISGLSVIKQEVERLGNDVFEWEDDESDEIA
partner: B1 chain
B3: Autophagy-related protein 8 (Saccharomyces cerevisiae), P38182 (parent)
chain: B1 chain
partner: B2 chain

Variants of: B1
Conditions: with atg3_yeast ATG3, P40344

| effect of a mutation on the interaction | Variant |
| --- | --- |
| disrupting interaction | MKSTFKSEYPFEKRKAESERIADRFKNRIPVICEKAEKSDIPEIDKRKYLVPADLTVGQFVKVIRKRIMLPPEKAIFIFVNDTLPPTAALMSAIYQEHKDKDGFLYVTYSGENTFGR [Y62K] |

Variants of: B2
Conditions: with atg8_yeast ATG8, P38182

| effect of a mutation on the interaction | Variant |
| --- | --- |
| decreasing interaction strength | E612Q |
| decreasing interaction strength | E612A |
| decreasing interaction strength | E612R |

Variants of: B3
Conditions: with atg7_yeast ATG7, P38862

| effect of a mutation on the interaction | Variant |
| --- | --- |
| disrupting interaction | MKSTFKSEYPFEKRKAESERIADRFKNRIPVICEKAEKSDIPEIDKRKYLVPADLTVGQFVAVIRARIMLPPEKAIFIFVNDTLPPTAALMSAIYQEHKDKDGFLYVTYSGENTFGR [Y62A;K66A] |
| decreasing interaction strength | MKSTFKSEYPFEKRKAESERIADRFKNRIPVICEKAEKSDIPEIDKRKYLVPADLTVGQFVYVIRARIMLPPEKAIFIFVNDTLPPTAALMSAIYQEHKDKDGFLYVTYSGENTFGR [K66A] |
| decreasing interaction strength | MKSTFKSEYPFEKRKAESERIADRFKNRIPVICEKAEKSDIPEIDKRKYLVPADLTVGQFVYVIRERIMLPPEKAIFIFVNDTLPPTAALMSAIYQEHKDKDGFLYVTYSGENTFGR [K66E] |
| disrupting interaction strength | MKSTFKSEYPFEKRKAESERIADRFKNRIPVICEKAEKSDIPEIDKRKYLVPADLTVGQFVKVIRKRIMLPPEKAIFIFVNDTLPPTAALMSAIYQEHKDKDGFLYVTYSGENTFGR [Y62K] |
| disrupting interaction strength | MKSTFKSEYPFEKRKAESERIADRFKNRIPVICEKAEKSDIPEIDKRKYLVPADLTVGQFVAVIRKRIMLPPEKAIFIFVNDTLPPTAALMSAIYQEHKDKDGFLYVTYSGENTFGR [Y62A] |

Variants of: B3
Conditions: with atg7_yeast ATG7, P38862
Remark: another data set of the same source

| effect of a mutation on the interaction | Variant |
| --- | --- |
| disrupting interaction | MKSTFKSEYPFEKRKAESERIADRFKNRIPVICEKAEKSDIPEIDKRKYLVPADLTVGQFVKVIRKRIMLPPEKAIFIFVNDTLPPTAALMSAIYQEHKDKDGFLYVTYSGENTFGR [Y62K] |
